Patent publication US20190153096A1 (COVAGEN, published 2019)

Target: T1, Human C1q (EMD Millipore) (human, UniProt P02745 23-245; P02746 28-253; P02747 29-245)
T1 construct: Bought protein; the three subunits are added from general knowledge
Test: SPR (BIAcore), antibody immobilised on the chip, human C1q injected at 3.125-200 nM
Description: Antibodies were coated onto a CMS chip via amine coupling at coating density of 5000 RU Human C1q (EMD Millipore) was injected in running buffer (PBS pH7.4, 0.05% TWEEN-20) at 200 nM and three-fold serial dilutions thereof at a flow rate of 30 μl/min. Binding was recorded, and KD was determined by curve fitting using the BIAcore software using a steady-state affinity model.

T1 sequence (P02745 23-245 limits assumed, chain 1 of 3): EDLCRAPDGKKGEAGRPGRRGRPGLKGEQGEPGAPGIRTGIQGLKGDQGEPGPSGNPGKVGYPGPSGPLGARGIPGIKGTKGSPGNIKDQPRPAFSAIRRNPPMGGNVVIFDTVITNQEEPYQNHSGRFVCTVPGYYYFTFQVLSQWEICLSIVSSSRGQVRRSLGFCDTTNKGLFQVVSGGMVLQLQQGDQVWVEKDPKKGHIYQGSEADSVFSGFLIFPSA
T1 sequence (P02746 28-253 limits assumed, chain 2 of 3): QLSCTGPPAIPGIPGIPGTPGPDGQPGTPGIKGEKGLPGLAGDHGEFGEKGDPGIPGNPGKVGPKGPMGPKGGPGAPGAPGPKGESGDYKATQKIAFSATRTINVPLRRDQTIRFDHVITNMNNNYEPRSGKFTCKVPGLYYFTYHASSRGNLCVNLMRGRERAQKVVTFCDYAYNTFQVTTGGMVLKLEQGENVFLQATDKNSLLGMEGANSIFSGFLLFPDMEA
T1 sequence (P02747 29-245 limits assumed, chain 3 of 3): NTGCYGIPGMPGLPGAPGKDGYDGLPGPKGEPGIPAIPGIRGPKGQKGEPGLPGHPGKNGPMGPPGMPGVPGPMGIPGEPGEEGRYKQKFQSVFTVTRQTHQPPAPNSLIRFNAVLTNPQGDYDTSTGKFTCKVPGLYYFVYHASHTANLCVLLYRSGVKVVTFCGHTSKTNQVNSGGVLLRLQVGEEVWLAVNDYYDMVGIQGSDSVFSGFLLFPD

- binding result: no binding (tested: 200 nM)
B1: mAb1 DANAPA IgG1 (antibody)
heavy: QVQLQQSGAELARPGASVKMSCKASGYTFTRSTMHWVKQRPGQGLEWIGYINPSSAYTNYNQKFKDKATLTADKSSSTAYMQLSSLTSEDSAVYYCASPQVHYDYNGFPYWGQGTLVTVSAASTKGPSVFPLAPSSKSTSGGTAALGCLVKDYFPEPVTVSWNSGALTSGVHTFPAVLQSSGLYSLSSVVTVPSSSLGTQTYICNVNHKPSNTKVDKKVEPKSCDKTHTCPPCPAPELLGGPSVFLFPPKPKDTLMISRTPEVTCVVVAVSHEDPEVKFNWYVDGVEVHNAKTKPREEQYASTYRVVSVLTVLHQDWLNGKEYKCKVSNKALAAPIEKTISKAKGQPREPQVYTLPPSREEMTKNQVSLTCLVKGFYPSDIAVEWESNGQPENNYKTTPPVLDSDGSFFLYSKLTVDKSRWQQGNVFSCSVMHEALHNHYTQKSLSLSPGK
light: QVVLTQSPAIMSAFPGEKVTMTCSASSSVSYMNWYQQKSGTSPKRWIYDSSKLASGVPARFSGSGSGTSYSLTISSMETEDAATYYCQQWSRNPPTFGGGTKLQITRTVAAPSVFIFPPSDEQLKSGTASVVCLLNNFYPREAKVQWKVDNALQSGNSQESVTEQDSKDSTYSLSSTLTLSKADYEKHKVYACEVTHQGLSSPVTKSFNRGEC
notes: mAb1 with D265A, N297A, P329A (EU); also called DANAPA Fc mutated mAb1
